B1: Lysosomal cobalamin transporter ABCD4 (Homo sapiens), O14678 (parent)
chain: MAVAGPAPGAGARPRLDLQFLQRFLQILKVLFPSWSSQNALMFLTLLCLTLLEQFVIYQVGLIPSQYYGVLGNKDLEGFKTLTFLAVMLIVLNSTLKSFDQFTCNLLYVSWRKDLTEHLHRLYFRGRAYYTLNVLRDDIDNPDQRISQDVERFCRQLSSMASKLIISPFTLVYYTYQCFQSTGWLGPVSIFGYFILGTVVNKTLMGPIVMKLVHQEKLEGDFRFKHMQIRVNAEPAAFYRAGHVEHMRTDRRLQRLLQTQRELMSKELWLYIGINTFDYLGSILSYVVIAIPIFSGVYGDLSPAELSTLVSKNAFVCIYLISCFTQLIDLSTTLSDVAGYTHRIGQLRETLLDMSLKSQDCEILGESEWGLDTPPGWPAAEPADTAFLLERVSISAPSSDKPLIKDLSLKISEGQSLLITGNTGTGKTSLLRVLGGLWTSTRGSVQMLTDFGPHGVLFLPQKPFFTDGTLREQVIYPLKEVYPDSGSADDERILRFLELAGLSNLVARTEGLDQQVDWNWYDVLSPGEMQRLSFARLFYLQPKYAVLDEATSALTEEVESELYRIGQQLGMTFISVGHRQSLEKFHSLVLKLCGGGRWELMRIKVE
partner: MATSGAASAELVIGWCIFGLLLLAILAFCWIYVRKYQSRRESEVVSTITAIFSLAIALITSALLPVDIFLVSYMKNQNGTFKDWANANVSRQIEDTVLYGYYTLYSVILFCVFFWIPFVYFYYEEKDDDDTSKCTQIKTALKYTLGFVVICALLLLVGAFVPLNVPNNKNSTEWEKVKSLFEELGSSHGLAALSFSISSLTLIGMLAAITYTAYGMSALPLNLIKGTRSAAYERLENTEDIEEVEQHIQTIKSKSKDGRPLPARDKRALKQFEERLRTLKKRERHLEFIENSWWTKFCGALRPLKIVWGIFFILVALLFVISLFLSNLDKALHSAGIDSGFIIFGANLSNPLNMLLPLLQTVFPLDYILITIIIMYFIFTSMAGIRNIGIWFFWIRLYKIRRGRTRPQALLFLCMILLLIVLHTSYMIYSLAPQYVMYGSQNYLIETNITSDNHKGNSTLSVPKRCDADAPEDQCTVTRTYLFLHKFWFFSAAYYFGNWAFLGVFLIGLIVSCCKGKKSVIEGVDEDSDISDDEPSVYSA
B2: Lysosomal cobalamin transport escort protein LMBD1 (Homo sapiens), Q9NUN5 (parent)
chain: B1 partner
partner: B1 chain

Variants of: B1
Conditions: with lmbd1_human LMBRD1, Q9NUN5

**Q.** With G426A as the variant, how does the “effect of a mutation on the interaction” value read?
**A.** Its value is “decreasing interaction strength”.

**Q.** Which “effect of a mutation on the interaction” value does the source give for R432Q here?
**A.** Its value is “decreasing interaction strength”.

**Q.** With G426A;K427L as the variant, how does the “effect of a mutation on the interaction” value read?
**A.** The value was “disrupting interaction strength”.

**Q.** How did the “effect of a mutation on the interaction” value turn out when D548N was run?
**A.** The value was “decreasing interaction strength”.

**Q.** Which “effect of a mutation on the interaction” value does the source give for N141K here?
**A.** Its value is “decreasing interaction strength”.

**Q.** Which “effect of a mutation on the interaction” value does the source give for K427L here?
**A.** The value was “decreasing interaction strength”.

Variants of: B1
Conditions: with lmbd1_human LMBRD1, Q9NUN5
Remark: another data set of the same source

**Q.** With G426A;K427L as the variant, how does the “effect of a mutation on the interaction” value read?
**A.** Its value is “decreasing interaction strength”.

Variants of: B2
Conditions: with abcd4_human ABCD4, O14678

**Q.** Which “effect of a mutation on the interaction” value does the source give for Y232A here?
**A.** The value was “decreasing interaction strength”.

From IntAct's records for PubMed 28572511
